Assay results reported in publication PMC8613972.

Key:
Naja mossambica venom = experiment: biolayer interferometry (wavelength shift, AUC of association curve); details: 120-s association phase; n=3; parent: est. 29; read off a plot
Naja siamensis venom = experiment: as above; details: 120-s association phase; n=3; parent: est. 23; read off a plot

Homininae α-1 nAChR orthosteric site (loop C) mimotope, native S187W; S191A
response (Naja mossambica venom): 38 AUC | response (Naja siamensis venom): 28 AUC

Homininae α-1 nAChR orthosteric site (loop C) mimotope, native S187W
response (Naja mossambica venom): 20 AUC | response (Naja siamensis venom): 16 AUC

Homininae α-1 nAChR orthosteric site (loop C) mimotope, native S187W; T189F
response (Naja mossambica venom): 88 AUC | response (Naja siamensis venom): 50 AUC

Homininae α-1 nAChR orthosteric site (loop C) mimotope, native S191A
response (Naja mossambica venom): 35 AUC | response (Naja siamensis venom): 28 AUC

Homininae α-1 nAChR orthosteric site (loop C) mimotope, native T189F; S191A
response (Naja mossambica venom): 47 AUC | response (Naja siamensis venom): 31 AUC

Homininae α-1 nAChR orthosteric site (loop C) mimotope, native T189F
response (Naja mossambica venom): 46 AUC | response (Naja siamensis venom): 32 AUC

Homininae α-1 nAChR orthosteric site (loop C) mimotope, native S187W; T189F; S191A
response (Naja mossambica venom): 76 AUC | response (Naja siamensis venom): 53 AUC
